Measurements from article PMC3199332.

Substrate: CC(C)=CCNc1ncnc2nc[nH]c12
Experiment: UV absorbance steady-state kinetics
Assay type: biochemical, Paraglaciecola sp. T6c
Conditions: hydrolytic deamination; compound 1 identified by kcat/Km 1.2 × 10^7

B1: Patl2390 (Paraglaciecola sp. T6c) (protein)
chain: MQTQPLDIQQFISDMPKAELHVHLEGTLEPELSFALAVKNRIPLEFDTPEQLIAAYDFHDLPSFLKIYYAGMNVLIKEEDFYQLTWDYLTKAASENIVYAELFFDPQAHTSRGVSFETIITGIHKAQLDAEQKLGIRSQLIMCFLRELSAESAMEHLKLAMPYLPWLVGVGLDSNERDNPPAKFAEVFEYAKALDLKLTMHCDVNQHNTLVHIKQCLDDIQVDRIDHGVNALQDPALLEKIKHKQLGLTVCPISNRFVVQSLTSNEVRQMLEHELLVTINSDDPAYFRAYLNENFIELQKEGQFSAQEMITLVENAFKVSWLKDTEISQYLYQVSQYVKQAEYQAA
  kcat: 7.3 ± 0.1 s⁻¹
  kcat/Km: 1.2e+07 M⁻¹ s⁻¹
